Laboratory results as given in PMC11091055 (Signal Transduction and Targeted Therapy, 2024).

Experiments:
Experiment in all cases: SPR
Conditions in all cases: both partners purified
[1] = biological target: T1, SARS-CoV-2 Omicron BA.5 S NTD, human Fc-tagged (SARS-CoV-2 Omicron BA.5, strain)
T1 construct: also called BA.5 NTD
T1 chain: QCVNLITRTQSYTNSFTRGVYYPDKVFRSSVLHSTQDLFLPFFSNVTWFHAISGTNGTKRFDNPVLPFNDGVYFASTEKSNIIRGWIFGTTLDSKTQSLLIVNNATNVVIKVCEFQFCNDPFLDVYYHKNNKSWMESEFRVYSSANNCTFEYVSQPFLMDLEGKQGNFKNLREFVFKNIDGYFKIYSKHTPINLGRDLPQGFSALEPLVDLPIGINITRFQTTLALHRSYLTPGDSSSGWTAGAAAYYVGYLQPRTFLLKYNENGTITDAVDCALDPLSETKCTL

[2] = biological target: T2, SARS-CoV-2 Omicron BA.3 S NTD, human Fc-tagged (SARS-CoV-2 Omicron BA.3, strain)
T2 construct: also called BA.3 NTD

[3] = biological target: T3, SARS-CoV-2 Omicron BA.2.86 S NTD, human Fc-tagged (SARS-CoV-2 Omicron BA.2.86, strain)
T3 construct: also called BA.2.86 NTD
T3 chain: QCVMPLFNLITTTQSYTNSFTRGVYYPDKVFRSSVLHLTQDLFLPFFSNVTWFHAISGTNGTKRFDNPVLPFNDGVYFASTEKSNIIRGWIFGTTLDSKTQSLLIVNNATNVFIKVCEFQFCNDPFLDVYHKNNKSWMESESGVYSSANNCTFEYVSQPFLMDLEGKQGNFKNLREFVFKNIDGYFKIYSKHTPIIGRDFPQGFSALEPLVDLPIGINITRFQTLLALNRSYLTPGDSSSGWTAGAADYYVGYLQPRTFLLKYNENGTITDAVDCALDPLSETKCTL

[4] = biological target: T4, SARS-CoV-2 Omicron BA.2.75 S NTD, human Fc-tagged (SARS-CoV-2 Omicron BA.2.75, strain)
T4 construct: also called BA.2.75 NTD
T4 chain: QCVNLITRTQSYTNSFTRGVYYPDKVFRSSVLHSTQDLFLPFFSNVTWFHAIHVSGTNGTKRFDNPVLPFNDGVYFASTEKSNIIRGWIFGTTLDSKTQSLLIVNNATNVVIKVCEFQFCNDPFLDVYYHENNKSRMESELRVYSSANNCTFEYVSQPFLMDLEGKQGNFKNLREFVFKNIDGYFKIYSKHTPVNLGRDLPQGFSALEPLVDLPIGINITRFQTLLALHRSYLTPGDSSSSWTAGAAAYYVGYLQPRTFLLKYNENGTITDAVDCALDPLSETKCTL

[5] = biological target: T5, SARS-CoV-2 Omicron XBB.1.5 S NTD, human Fc-tagged (SARS-CoV-2 Omicron XBB.1.5, strain)
T5 construct: also called XBB.1.5 NTD
T5 chain: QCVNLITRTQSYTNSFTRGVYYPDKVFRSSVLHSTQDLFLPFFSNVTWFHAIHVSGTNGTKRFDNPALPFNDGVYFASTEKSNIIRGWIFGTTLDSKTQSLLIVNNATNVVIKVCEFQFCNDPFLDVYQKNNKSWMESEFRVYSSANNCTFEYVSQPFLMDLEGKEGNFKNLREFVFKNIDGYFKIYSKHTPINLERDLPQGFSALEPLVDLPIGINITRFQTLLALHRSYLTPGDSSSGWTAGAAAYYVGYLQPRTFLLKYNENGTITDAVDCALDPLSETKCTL

[6] = biological target: T6, SARS-CoV-2 Omicron BA.2 S NTD, human Fc-tagged (SARS-CoV-2 Omicron BA.2, strain)
T6 construct: also called BA.2 NTD
T6 chain: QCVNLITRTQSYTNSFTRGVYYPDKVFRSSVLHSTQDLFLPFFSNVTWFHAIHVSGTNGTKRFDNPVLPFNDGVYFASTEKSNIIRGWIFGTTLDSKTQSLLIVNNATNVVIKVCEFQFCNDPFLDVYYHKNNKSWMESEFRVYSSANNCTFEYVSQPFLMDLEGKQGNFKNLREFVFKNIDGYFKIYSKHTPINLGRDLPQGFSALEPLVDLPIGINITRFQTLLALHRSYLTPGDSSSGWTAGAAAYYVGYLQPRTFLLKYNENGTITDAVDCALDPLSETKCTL

[7] = biological target: T7, SARS-CoV-2 Omicron XBB.1.16 S NTD, human Fc-tagged (SARS-CoV-2 Omicron XBB.1.16, strain)
T7 construct: also called XBB.1.16 NTD
T7 chain: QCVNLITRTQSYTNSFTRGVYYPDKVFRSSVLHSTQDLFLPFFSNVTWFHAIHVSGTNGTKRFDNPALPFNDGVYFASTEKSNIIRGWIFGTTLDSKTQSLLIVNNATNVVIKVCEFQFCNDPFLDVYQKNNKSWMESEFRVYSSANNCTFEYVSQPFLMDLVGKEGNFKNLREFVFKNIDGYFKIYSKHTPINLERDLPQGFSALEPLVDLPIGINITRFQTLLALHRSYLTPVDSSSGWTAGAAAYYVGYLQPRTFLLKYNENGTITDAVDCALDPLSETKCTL

[8] = biological target: T8, SARS-CoV-2 Omicron BA.1 S NTD, human Fc-tagged (SARS-CoV-2 Omicron BA.1, strain)
T8 construct: also called BA.1 NTD

[9] = biological target: T9, SARS-CoV-2 Omicron XBB S NTD, human Fc-tagged (SARS-CoV-2 Omicron XBB, strain)
T9 construct: also called XBB NTD
T9 chain: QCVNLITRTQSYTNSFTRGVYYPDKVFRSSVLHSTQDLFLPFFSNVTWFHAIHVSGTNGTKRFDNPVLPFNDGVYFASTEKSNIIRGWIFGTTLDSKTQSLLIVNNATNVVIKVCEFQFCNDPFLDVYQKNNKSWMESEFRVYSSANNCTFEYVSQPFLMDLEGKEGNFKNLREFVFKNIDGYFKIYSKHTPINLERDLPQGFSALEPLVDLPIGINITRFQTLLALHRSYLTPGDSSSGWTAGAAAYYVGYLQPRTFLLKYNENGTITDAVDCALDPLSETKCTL

[10] = biological target: T10, SARS-CoV-2 Omicron JN.1 S NTD, human Fc-tagged (SARS-CoV-2 Omicron JN.1, strain)
T10 construct: also called JN.1 NTD
T10 chain: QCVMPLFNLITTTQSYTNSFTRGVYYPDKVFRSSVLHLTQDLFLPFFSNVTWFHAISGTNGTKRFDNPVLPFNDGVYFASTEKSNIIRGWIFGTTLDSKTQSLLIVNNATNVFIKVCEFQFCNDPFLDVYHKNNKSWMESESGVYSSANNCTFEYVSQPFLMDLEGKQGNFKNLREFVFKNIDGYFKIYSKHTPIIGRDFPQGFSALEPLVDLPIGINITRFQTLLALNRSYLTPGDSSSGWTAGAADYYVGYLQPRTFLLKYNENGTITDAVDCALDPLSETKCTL

[11] = biological target: T11, SARS-CoV-2 Omicron EG.5.1 S NTD, human Fc-tagged (SARS-CoV-2 Omicron EG.5.1, strain)
T11 construct: also called EG.5.1 NTD
T11 chain: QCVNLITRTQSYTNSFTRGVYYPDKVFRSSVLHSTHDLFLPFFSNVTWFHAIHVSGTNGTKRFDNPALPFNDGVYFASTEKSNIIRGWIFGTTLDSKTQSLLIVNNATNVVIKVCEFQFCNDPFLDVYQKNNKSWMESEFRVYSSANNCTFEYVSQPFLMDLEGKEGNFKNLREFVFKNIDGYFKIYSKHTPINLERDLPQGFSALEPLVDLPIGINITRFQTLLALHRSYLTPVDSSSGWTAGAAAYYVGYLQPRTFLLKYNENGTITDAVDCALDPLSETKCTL

[12] = biological target: T12, SARS-CoV-2 Lambda S NTD, human Fc-tagged (SARS-CoV-2 Lambda (C.37), strain)
T12 construct: also called Lambda NTD
T12 chain: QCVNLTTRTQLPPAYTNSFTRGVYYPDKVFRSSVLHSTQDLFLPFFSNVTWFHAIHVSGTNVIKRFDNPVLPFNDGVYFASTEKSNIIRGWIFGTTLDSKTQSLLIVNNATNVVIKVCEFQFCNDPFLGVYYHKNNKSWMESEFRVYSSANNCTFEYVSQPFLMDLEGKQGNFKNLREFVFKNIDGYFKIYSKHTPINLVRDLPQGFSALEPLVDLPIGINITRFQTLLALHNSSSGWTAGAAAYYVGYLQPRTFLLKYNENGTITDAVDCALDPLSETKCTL

[13] = biological target: T13, SARS-CoV-2 Omicron BA.2.3.20 S NTD, human Fc-tagged (SARS-CoV-2 Omicron BA.2.3.20, strain)
T13 construct: also called BA.2.3.20 NTD
T13 chain: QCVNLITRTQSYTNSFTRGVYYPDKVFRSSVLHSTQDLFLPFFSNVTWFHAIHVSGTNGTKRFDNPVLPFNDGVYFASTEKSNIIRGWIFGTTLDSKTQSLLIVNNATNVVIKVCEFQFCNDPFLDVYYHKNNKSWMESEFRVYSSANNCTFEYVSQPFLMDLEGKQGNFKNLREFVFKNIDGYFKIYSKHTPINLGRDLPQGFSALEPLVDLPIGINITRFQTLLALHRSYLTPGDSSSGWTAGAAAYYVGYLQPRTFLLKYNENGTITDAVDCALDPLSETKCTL

[14] = biological target: T14, SARS-CoV-2 Delta S NTD, human Fc-tagged (SARS-CoV-2 Delta (B.1.617.2), strain)
T14 construct: also called Delta NTD

Measured: Kd

B1: nanobody N235, His-tagged (VHH)
VHH: QVQLQESGGGLVQPGGSLRLSCAASGLIISRYDMSWYRQAPGKERELVATTPIPAARPQYADSVKGRFTISRDNAKNTVSLQMNSLKPEDTAVYYCNLGPESQDHNYNYWGQGTQVTVSS
< 200 pM: [1] | [2] | [3] | [4] | [5] | [6] | [7] | [8] | [9] | [10] | [11] | [12] | [13] | [14]
